The test has as its target eHSP90α-His6 (secreted from HEK293) (human) (UniProt P07900). The test can be described thus: native gel or EMSA.

With “eHSP90α-His6 (secreted from HEK293) (from UniProt P07900 1-732) (natural protein)”, the stoichiometry N is 2.

The values are drawn from paper PMC8276117.
